From patent US11484607B2, “PSMA-targeted NIR dyes and their uses” (On Target Laboratories, LLC, priority 2015, dated 2022) come the findings set out here.

A short description of this data set: Concentration dependent UV spectrometric study of higher order aggregates. The data set is classed as physicochemical. The procedure: Possible OTL78-related hypersensitivity in human was next examined using basophil activation assay. Drug related hypersensitivity is mainly due to immune response caused by cross-linking of immunoglobulin E (IgE) expressed on mast cells and basophils (FIG. 47D) resulting in activation and subsequent degranulation to release vasoactive amines, prostaglandins, and cytokines (29). Since cross-linking of IgE can be due to aggregates, concentration dependent UV spectrometric studies were conducted to determine higher order aggregates of OTL78.

Where only a bound is given, the exact number is not on record here.

For the substance OTL38 [reference compound], the higher aggregates (75 μM concentration in saline) is listed as above 50%. Besides, for the setting “75 μM in saline”, the “higher order aggregates (UV spectra), in words” value was “concentration dependent aggregation peak”.
